Target: T1, D614G S2P probe (SARS-CoV-2, WA-1 with D614G, UniProt A0A6H1PJZ3, D614G | K986P | V987P, biotin on the AVI tag (…))
T1 construct: also called single mutated D614G S2P
Experiment: BLI
Conditions: both partners purified

B1: A19-46.1 (antibody, V domains shown)
VH: QVQLVESGGGVVQPGRSLRLSCAASGFTLSSYGMHWVRQAPGKGLEWVAVISYDGSNKYYVDSVKGRFTISRDNSKNTLYLQMNSLRAEDTAVYYCARGWAYWELLPDYYYGMDVWGQGTTVTVSS
VL: QTVVTQEPSFSVSPGGTVTLTCGLSSGSVSTAYFPSWYQQTPGQAPRTLIYGTNTRSSGVPDRFSGSILGNKAALTITGAQADDESDYYCVLYMGRGIVVFGGGTKLTVL
  binding result: binds
